Values belong to the molecule of their own block, whether it stands above or below them.
Legend:
[1] = target: Gly234Ser mutant of SaBADH (G234S-SaBADH) (Staphylococcus aureus COL); test: crystal structure; X-ray structures of apo and NAD-bound forms, with and without BME; sitting-drop vapor diffusion at 295 K; assemblies analysed with PISA
[2] = target: T1, SaBADH (Staphylococcus aureus, UniProt A0A0H2X0S3); test: SPR, immobilized SaBADH; type: binding; conditions: 2 mM ADP, pH 5.0-8.0, 298 K, two-day-old surface
T1 construct: gene betB; pMCSG7 tagged protein (Ni-NTA), E. coli BL21(DE3)/pMAGIC; tetramer/dimer; G234S cloned in p15TV-LIC
T1 sequence (A0A0H2X0S3 1-496): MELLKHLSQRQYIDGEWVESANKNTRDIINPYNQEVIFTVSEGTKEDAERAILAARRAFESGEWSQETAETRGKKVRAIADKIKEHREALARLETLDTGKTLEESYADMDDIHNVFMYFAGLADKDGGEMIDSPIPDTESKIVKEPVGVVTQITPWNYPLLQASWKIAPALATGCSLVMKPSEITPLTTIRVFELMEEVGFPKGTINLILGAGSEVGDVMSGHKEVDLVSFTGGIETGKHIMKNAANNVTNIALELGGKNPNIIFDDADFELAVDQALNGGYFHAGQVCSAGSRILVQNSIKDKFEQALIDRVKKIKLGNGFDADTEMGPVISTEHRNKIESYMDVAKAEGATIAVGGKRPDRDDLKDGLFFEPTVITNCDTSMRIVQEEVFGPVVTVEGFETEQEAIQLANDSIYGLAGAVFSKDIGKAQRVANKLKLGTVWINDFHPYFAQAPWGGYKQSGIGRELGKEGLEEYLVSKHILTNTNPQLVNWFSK

[3] = target: T1, SaBADH; test: SPR, immobilized SaBADH(BME+); type: binding
[4] = target: betaine aldehyde dehydrogenase SACOL2628 from Staphylococcus aureus COL (SaBADH), wild type (Staphylococcus aureus COL); test: SEC-MALS; SaBADH^BME(+) 2 mg/ml on Superdex 200 10/300 GL in 10 mM Tris-HCl pH 8.3, 500 mM NaCl, 5 mM BME, 295 K
[5] = target: betaine aldehyde dehydrogenase SACOL2628 from Staphylococcus aureus COL (SaBADH), wild type (Staphylococcus aureus COL); test: dynamic light scattering; SaBADH^BME(−) 10-100 uM in 10 mM Tris-HCl pH 8.3, 0.5 mM TCEP, no added salt, 298 K
[6] = target: betaine aldehyde dehydrogenase SACOL2628 from Staphylococcus aureus COL (SaBADH), wild type (Staphylococcus aureus COL); test: dynamic light scattering; SaBADH^BME(−) 10-100 uM in 10 mM Tris-HCl pH 8.3, 0.5 mM TCEP, with 0.5-2.5 M NaCl, 298 K
[7] = target: betaine aldehyde dehydrogenase SACOL2628 from Staphylococcus aureus COL (SaBADH), wild type (Staphylococcus aureus COL); test: dynamic light scattering; SaBADH^BME(−) 10-100 uM in 10 mM Tris-HCl pH 8.3, 0.5 mM TCEP, with 0.5-2.5 M KCl, 298 K
[8] = target: betaine aldehyde dehydrogenase SACOL2628 from Staphylococcus aureus COL (SaBADH), wild type (Staphylococcus aureus COL); test: crystal structure; X-ray structures of apo and NAD-bound forms, with and without BME; sitting-drop vapor diffusion at 295 K; assemblies analysed with PISA
[9] = target: T2, AroD (Salmonella enterica, UniProt P58687); test: SPR, single binding isotherm fitting
T2 construct: source cited as Light et al., 2013; used as SPR control protein
T2 sequence (P58687 1-252): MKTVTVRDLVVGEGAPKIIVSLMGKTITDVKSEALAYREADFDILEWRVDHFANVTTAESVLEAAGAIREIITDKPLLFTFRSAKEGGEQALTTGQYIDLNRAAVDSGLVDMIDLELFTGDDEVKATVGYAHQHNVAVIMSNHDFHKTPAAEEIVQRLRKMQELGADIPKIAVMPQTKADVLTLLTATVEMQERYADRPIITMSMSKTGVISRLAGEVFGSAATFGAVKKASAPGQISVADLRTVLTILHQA
From the text: SPR, single binding isotherm fitting on AroD | each of the proteins selectively responded to its natural ligand, NADH and DQA, respectively

[10] = target: T1, SaBADH; test: NADH absorbance at […] nm; type: biochemical; conditions: substrate inhibition; co-substrate NAD+; 100 mM potassium phosphate pH 8.0, 303 K
[11] = substrate: NC(=O)c1ccc[n+]([C@@H]2O[C@H](COP(=O)(O)OP(=O)(O)OC[C@H]3O[C@@H](n4cnc5c(N)ncnc54)[C@H](OP(=O)(O)O)[C@@H]3O)[C@@H](O)[C@H]2O)c1; test: purified protein; conditions: co-substrate betaine aldehyde, 100 mM potassium phosphate pH 8.0, 303 K, 30.0 °C, varied: cofactor
[12] = substrate: NC(=O)c1ccc[n+]([C@@H]2O[C@H](COP(=O)(O)OP(=O)(O)OC[C@H]3O[C@@H](n4cnc5c(N)ncnc54)[C@H](O)[C@@H]3O)[C@@H](O)[C@H]2O)c1; test: purified protein; conditions: co-substrate betaine aldehyde, 100 mM potassium phosphate pH 8.0, 303 K, 30.0 °C, varied: cofactor

Molecule: Gly234Ser mutant of SaBADH (G234S-SaBADH) (enzyme)
- stoichiometry N [1]: 4

Molecule: Nc1ncnc2c1ncn2[C@@H]1O[C@H](COP(=O)(O)OP(=O)(O)O)[C@@H](O)[C@H]1O [ADP]
- SPR, immobilized SaBADH [2]: An acidic pH favored the ADP–SaBADH interaction

Molecule: NC(=O)c1ccc[n+]([C@@H]2O[C@H](COP(=O)(O)OP(=O)(O)OC[C@H]3O[C@@H](n4cnc5c(N)ncnc54)[C@H](O)[C@@H]3O)[C@@H](O)[C@H]2O)c1 [NAD^+]
- Kd [3]: 19.3 µM

- stoichiometry N [4]: 4
- stoichiometry N [5]: 2
- stoichiometry N [6]: 4
- stoichiometry N [7]: 2
- stoichiometry N [8]: 4
Molecule: betaine aldehyde dehydrogenase SACOL2628 from Staphylococcus aureus COL (SaBADH), wild type (enzyme)

Molecule: NC(=O)C1=CN([C@@H]2O[C@H](COP(=O)(O)OP(=O)(O)OC[C@H]3O[C@@H](n4cnc5c(N)ncnc54)[C@H](O)[C@@H]3O)[C@@H](O)[C@H]2O)C=CC1 [NADH]
- Kd [3]: 4.5 µM

Molecule: O=C1C[C@@](O)(C(=O)O)C[C@@H](O)[C@@H]1O [3-dehydroquinic acid]
- Kd [9]: 244 µM

Molecule: C[N+](C)(C)CC=O [betaine aldehyde]
- Betaine aldehyde [10]: 0.34 ± 0.06 mM

B1: SaBADH (Staphylococcus aureus subsp. aureus COL) (protein)
chain: MELLKHLSQRQYIDGEWVESANKNTRDIINPYNQEVIFTVSEGTKEDAERAILAARRAFESGEWSQETAETRGKKVRAIADKIKEHREALARLETLDTGKTLEESYADMDDIHNVFMYFAGLADKDGGEMIDSPIPDTESKIVKEPVGVVTQITPWNYPLLQASWKIAPALATGCSLVMKPSEITPLTTIRVFELMEEVGFPKGTINLILGAGSEVGDVMSGHKEVDLVSFTGGIETGKHIMKNAANNVTNIALELGGKNPNIIFDDADFELAVDQALNGGYFHAGQVCSAGSRILVQNSIKDKFEQALIDRVKKIKLGNGFDADTEMGPVISTEHRNKIESYMDVAKAEGATIAVGGKRPDRDDLKDGLFFEPTVITNCDTSMRIVQEEVFGPVVTVEGFETEQEAIQLANDSIYGLAGAVFSKDIGKAQRVANKLKLGTVWINDFHPYFAQAPWGGYKQSGIGRELGKEGLEEYLVSKHILTNTNPQLVNWFSK
- Km [11]: 2260 ± 350 µM
- Km [12]: 430 ± 30 µM

— publication PMC4427200 (Acta Crystallographica Section D: Biological Crystallography, 2015)
